Substitutions are numbered along the chain they refer to. Like-named read-outs stand apart in the source and are kept apart here. Each block holds one molecule with its values, some of them ahead of it.
How the values were obtained:
[1] = tested on: immobilized peptides containing N-terminal R, K or H; assay: Biolayer interferometry of UBR-box domain homologs; type: binding; conditions: for binding range for RX dipeptides: 14 peptides RXGGGDDDFFK (SEQ ID NO: 241)
Procedure: The amino acid binding properties of UBR-box domain homologs were evaluated by biolayer interferometry. Peptides containing an N-terminal arginine (R), followed by different amino acids in the penultimate position, were immobilized on a biolayer interferometry sensor surface, allowed to bind to UBR-box protein, and incubated in buffer to allow the UBR-box molecules to dissociate. […] FIG. 32C is a heatmap showing results measured for 24 UBR-box homologs against 14 polypeptides containing N-terminal R followed by different amino acids in the penultimate position.
UBR proteins bind to the basic N-terminal residues R, K, and H as part of the conserved N-end rule pathway. To identify high-affinity UBR proteins with properties favorable for use in sequencing, a diverse panel of uncharacterized UBR-box domain homologs from 44 species (PS501-PS544) was designed. UBR-box domain homologs were expressed, purified, and evaluated for binding to N-terminal amino acids by biolayer interferometry. Measurements were carried out at 30° C. for each protein for R, K and H binding. The amino-acid binding profile of each new homolog was first evaluated by biolayer interferometry using a single-point screening assay. All peptides in this screen contained a penultimate alanine (A) and consisted of the sequence XAKLDEESILKQK (SEQ ID NO: 238), where X is R, K, or H.
To evaluate the effect of penultimate amino acids on arginine binding, UBR box-domain homologs were evaluated for binding to 14 different peptides with N-terminal RX (peptide sequence: RXGGGDDDFFK (SEQ ID NO: 241)). The selected RX dipeptides are the 14 most frequently found in the human proteome.

[2] = tested on: labeled peptide (XAKLDEESILKQK-FITC (SEQ ID NO: 238)); RA, KA, HA; assay: Single point fluorescence polarization assay of UBR-streptavidin complex; type: binding
Procedure: Single point fluorescence polarization assays were then performed for selected candidates. These assays measured the interaction of labeled peptide (XAKLDEESILKQK-FITC (SEQ ID NO: 238)) with UBR-streptavidin complex in a format in which these molecules are free in solution. Measurements of polarization response (millipolarization, mP) and total intensity for RA, KA, and HA peptides were performed.

RA and KA peptides = assay: Fluorescence polarization binding titration of UBR-box domain candidates (KD); conditions: RA peptide
Procedure: The binding affinity of selected UBR-box domain candidates was then evaluated by measuring KD (dissociation constant) values for N-terminal R and K peptides. Assays were performed for RA and KA peptides at increasing concentration of UBR protein (FIG. 32G, top plots). KD values were determined from the binding titration curves.

dye-labeled RL peptide = assay: Peptide-on-chip recognition assay for N-terminal arginine peptide; type: binding
Procedure: Peptide-on-chip recognition assays for N-terminal arginine peptide were performed with PS621 and PS528. Both PS528 and PS621 recognized N-terminal R, and binding to dye-labeled RL peptide at the single-molecule level was confirmed in these recognition assays, with average pulse width of approximately 60 ms.

[3] = target: N-terminal arginine peptide (alanine at the penultimate position); assay: Fluorescence polarization binding affinity of tandem recognizers, RA peptide
Procedure: Three different constructs were designed and expressed for each multivalent UBR-box binder: PS690, PS691, and PS692 (Bis-PS621 binders having Linker 1, Linker 2, and Linker 3, respectively); and PS693, PS694, and PS695 (Bis-PS528 binders having Linker 1, Linker 2, and Linker 3, respectively). Fluorescence polarization studies were performed to evaluate the binding affinity of each of the multivalent UBR-box binders, and the corresponding monomeric binders, for a peptide having an N-terminal arginine residue with an alanine residue at the penultimate position. The KD values obtained from these studies are reported below in Table 11.

[4] = tested on: amino acid at a terminal position of a polypeptide; conditions: Table 2; amino acid identity at a terminal position (phosphotyrosine also internal); inferred from literature and/or demonstrated by the inventors; cited from earlier work
[5] = target: N-terminal phenylalanine peptide (alanine at the penultimate position); assay: Fluorescence polarization binding affinity of tandem recognizers, FA peptide
Procedure: The multivalent binder PS651 was designed as a tandem fusion molecule expressed from a single coding sequence containing segments encoding three copies of atClpS2-V1 (Tris-atClpS2-V1) joined end-to-end by segments encoding a flexible peptide linker (Linker 2). Fluorescence polarization studies were performed with PS651, the Bis-atClpS2-V1 binders (PS609, PS610, PS611), and the monomeric binder atClpS2-V1, to determine the binding affinity of each for a peptide having an N-terminal phenylalanine residue with an alanine residue at the penultimate position. The KD values obtained from these studies are reported below in Table 9.

[6] = tested on: FITC labeled N-terminal LA peptide; assay: Stopped-flow association rate constant (kon), PS557 derivatives; type: binding
Procedure: Stopped-flow assays were performed to measure the association (kon) and dissociation (koff) rates for PS557, atClpS2-V1, and fusion proteins derived by C-terminal addition of protein shields. To measure the on-rate constant by stopped-flow, the binder was rapidly mixed with FITC labeled peptide, and the reaction was followed in real time. N-terminal LA peptide was used for PS557 derivatives and N-terminal FA peptide was used for atClpS2-V1 derivatives. In this assay, the fluorescence signal decreased due to quenching upon protein binding. The averaged traces obtained at multiple concentrations of binder were fitted with a decay equation to derive association rates (FIG. 37A, middle panel). A linear slope from the plot of association rates against different binder concentrations gave the kon rate constant (FIG. 37A, bottom panel).

[7] = tested on: labeled N-terminal LA peptide; assay: Stopped-flow dissociation rate (koff), PS557 derivatives; type: binding; conditions: excess unlabeled trap peptide
Text: To measure the dissociation rate (koff) by stopped-flow, complexes of binder bound to labeled peptide substrate at an optimal concentration were rapidly mixed with excess unlabeled trap peptide. […] The averaged raw traces were fitted with an exponential equation to determine the koff (FIG. 37B, bottom panel).

[8] = tested on: amino acid at a terminal position of a polypeptide; assay: Amino acid binding preference of recognition proteins (Tables 1 and 2); conditions: Table 1, ClpS proteins; amino acid identity at a terminal position of a polypeptide; inferred from literature and/or demonstrated by the inventors
Text: It should be appreciated that these sequences and other examples described herein are meant to be non-limiting, and recognition molecules in accordance with the application can include any homologs, variants thereof, or fragments thereof minimally containing domains or subdomains responsible for peptide recognition.

[9] = tested on: peptides with different N-terminal amino acids, penultimate alanine; assay: Biolayer interferometry of multivalent amino acid binders; type: binding
Procedure: The amino acid binding profile of each Bis-atClpS2-V1 binder (PS609, PS610, and PS611) was evaluated by biolayer interferometry as described above. The monovalent atClpS2-V1 was run as a control. Measurements with each binder were carried out for the amino acids F, Y, and W, along with I, L, M, and V as negative controls. All peptides contained a penultimate alanine (A). Response curves for the tandem binders PS609, PS610, and PS611 are shown in FIGS. 35B, 35C, and 35D, respectively.
The multivalent binder PS612 is a polypeptide that contains tandem copies of two different ClpS protein monomers (atClpS2-V1 and PS372). The amino acid binding profile of PS612 was evaluated by biolayer interferometry as described above. The monovalent binders atClpS2-V1 and PS372 were separately run as controls.
The multivalent binder PS614 is a polypeptide that contains two copies of the ClpS binder PS372 oriented in tandem. The amino acid binding profile of PS614 was evaluated by biolayer interferometry as described above.
The multivalent binders PS637, PS638, and PS639 are polypeptides that each contain two copies of the ClpS binder PS557 oriented in tandem and separated by Linker 1, Linker 2, and Linker 3, respectively. The amino acid binding profiles of each binder was evaluated by biolayer interferometry as described above.

- Kd [3]: 403 nM
B1: PS528: UBR-box domain homolog, SEQ ID NO: 156 (protein, listed as Kluyveromyces lactis)
chain: MHSKFNHAGRICGAKFRVGEPIYRCKECSFDDTCVLCVNCFNPKDHVGHHVYTSICTEFNNGICDCGDKEAWNHELNCKGAED
- binding range for RX dipeptides [1]: extensive binding range for RX dipeptides
- binding affinity to N-terminal R with different penultimate amino acids ([1]; 14 polypeptides containing N-terminal R): high binding affinity to R in the presence of a wide range of penultimate amino acids
- binding to RA/KA/HA peptides (single-point screening) ([1]; 30° C., XAKLDEESILKQK): favorable binding trajectories to RA and KA peptides with notably high response for RA peptide
- dissociation trajectory and HA peptide binding ([1]; 30° C., XAKLDEESILKQK): slower dissociation trajectory and displayed binding to HA peptide
- polarization response with RA peptide [2]: bind to RA peptides with strong responses
- Kd (RA and KA peptides): 460 nM
- average pulse width (dye-labeled RL peptide): approximately 60 ms
- Binding Pref. [4]: K, R, H

B2: PS621: UBR-box domain homolog, SEQ ID NO: 181 (protein, listed as Kluyveromyces marxianus)
chain: B1 chain with N6S, R17K, V47T, S54T, E75T, N77F, G80A, A81E, D83G
- binding range for RX dipeptides [1]: extensive binding range for RX dipeptides
- binding to RA/KA/HA peptides (single-point screening) ([1]; 30° C., XAKLDEESILKQK): favorable binding characteristics with results that were similar to PS528
- polarization response with RA peptide [2]: bind to RA peptides with strong responses
- average pulse width (dye-labeled RL peptide): approximately 60 ms
- Binding Pref. [4]: K, R, H

- Kd [5]: 221 nM
B3: PS609: single polypeptide with two tandem copies of atClpS2-V1 joined by Linker 1 (SEQ ID NO: 243) (protein)
chain: MSDSPVDLKPKPKVKPKLERPKLYKVMLLNDDYTPMSFVTVVLKAVFRMSEDTGRRVMMTAHRFGSAVVVVCERDIAETKAKEATDLGKEAGFPLMFTTEPEEGGGSGGGSGGGSGMSDSPVDLKPKPKVKPKLERPKLYKVMLLNDDYTPMSFVTVVLKAVFRMSEDTGRRVMMTAHRFGSAVVVVCERDIAETKAKEATDLGKEAGFPLMFTTEPEEGHHHHHHHHHHGGGSGGGSGGGSGLNDFFEAQKIEWHEGGGSGGGSGGGSGLNDFFEAQKIEWHE

B4: PS698 (protein)
chain: MPTAASATESAIEDTPAPARPEVDGRTKPKRQPRYHVVLWNDDDHTYQYVVVMLQSLFGHPPERGYRLAKEVDTQGRVIVLTTTREHAELKRDQIHAFGYDRLLARSKGSMKASIEAEEHHHHHHHHHHGGGSGGGSGGGSGLNDFFEAQKIEWHEGGGSGGGSGGGSGLNDFFEAQKIEWHEGSAGSAAGSGEFMDKDCEMKRTTLDSPLGKLELSGCEQGLHEIKLLGKGTSAADAVEVPAPAAVLGGPEPLMQATAWLNAYFHQPEAIEEFPVPALHHPVFQQESFTRQVLWKLLKVVKFGEVISYQQLAALAGNPAATAAVKTALSGNPVPILIPCHRVVSSSGAVGGYEGGLAVKEWLLAHEGHRLGKPGLG
- LA kon [6]: 4e+06 M⁻¹ s⁻¹
- LA koff [7]: 0.19 s⁻¹

- Binding Pref. [8]: I, L, V
B5: PS557: PS372-homologous ClpS protein, SEQ ID NO: 71 (protein, listed as Planctomycetes bacterium)
chain: MPTAASATESAIEDTPAPARPEVDGRTKPKRQPRYHVVLWNDDDHTYQYVVVMLQSLFGHPPERGYRLAKEVDTQGRVIVLTTTREHAELKRDQIHAFGYDRLLARSKGSMKASIEAEE
- N-terminal amino acids bound (biolayer interferometry) [9]: binds N-terminal I, L, and V
- LA kon [6]: 1.8e+06 M⁻¹ s⁻¹
- LA koff [7]: 0.22 s⁻¹

Source: patent US12065466B2, “Methods and compositions for protein sequencing” (Quantum-Si Incorporated, priority 2020, dated 2024)
